The values below come from PMC12494543, “Identification of ALKBH6 as a nucleotide demethylase with a distinct substrate preference” (The Journal of Biological Chemistry, 2025).

As a reminder, the Km is the concentration of substrate that gives half-maximal velocity. By kcat is commonly meant the maximal rate divided by the concentration of active sites.

Substrate in series [1]: C[n+]1cn([C@@H]2O[C@H](COP(=O)(O)O)[C@@H](O)[C@H]2O)c2nc(N)[nH]c(=O)c21
The series can be described thus: FDH-coupled formaldehyde release demethylation assay. It is filed as biochemical, human. Particulars: other: substrate of ALKBH6, Michaelis-Menten; 37.0 °C. How it is done: (§1) NMPs including 1meAMP (Jena Bioscience, NU-1029-1,) 7meGMP (Jena Bioscience, NU-1135S), 6me-AMP (Sigma, M2780) were purchased. N-methylated deoxy-NMPs were prepared by methylating chemically synthesized 30-mer oligonucleotide containing either dA, dG, dC, or dT by MMS (5%, v/v) (0.59 M) MMS (Sigma, 129925) and purified as described before ([17]). The oligonucleotides were digested with nuclease P1 (NEB) at 37 °C for 4 h to produce deoxy-NMPs. After heat inactivating the nuclease, dNMPs were purified by HPLC and used for the demethylation reaction. N-methylated NMPs were purified similarly, using RNA as the starting material. For the demethylation reaction, ALKBH6 (1 μM) and me-dNMPs (1 mM) were mixed in the dioxygenase reaction buffer and incubated at 37 °C for 30 min. Formaldehyde release was detected by FDH-coupled DNA repair assay as described before ([32], [33]). Briefly, 1 mM NAD+ and 0.01 U FDH were added to the dioxygenase reaction buffer containing methylated nucleotide and ALKBH6. NADH generated was detected by the characteristic absorption peak (340 nm) using a 96-well multimode reader (Synergy, Biotek Instrument). Formaldehyde production was quantified from the standard curve and the initial velocities were determined using various substrate concentrations. The results were plotted and analyzed using GraphPad Prism.

Substrate in series [2]: C[n+]1cnc2c(ncn2[C@@H]2O[C@H](COP(=O)(O)O)[C@@H](O)[C@H]2O)c1N
The series is described as above. It is filed as biochemical, human. The following applies: other: substrate of ALKBH6, Michaelis-Menten; 37.0 °C. On the procedure: as §1

B1: ALKBH6 (Homo sapiens) (protein)
chain: MEEQDARVPALEPFRVEQAPPVIYYVPDFISKEEEEYLLRQVFNAPKPKWTQLSGRKLQNWGGLPHPRGMVPERLPPWLQRYVDKVSNLSLFGGLPANHVLVNQYLPGEGIMPHEDGPLYYPTVSTISLGSHTVLDFYEPRRPEDDDPTEQPRPPPRPTTSLLLEPRSLLVLRGPAYTRLLHGIAAARVDALDAASSPPNAAACPSARPGACLVRGTRVSLTIRRVPRVLRAGLLLGK
notes: His-tag; made in house
Turning to B1, in series [1], the Km was determined as 1.03 µM and the kcat came to 10 min⁻¹. Also, in series [2], the Km stood at 0.96 µM and the kcat was found to be 10.8 min⁻¹.
